Here are results for 1 substance from paper PMC7591262.

The assay concerns the target Wtf4^antidote-mCherry (S. kambucha). Description: FRET or BRET.

Wtf4^poison-GFP (natural protein): the FRET (acceptor photobleaching) was 40%.
